We go through one protein from patent publication US20190201487.

The target in the series is T1, neonatal NET-Inhibitory Factor (nNIF).
T1 chain: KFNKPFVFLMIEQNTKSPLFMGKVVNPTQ

B1: neutrophil elastase (NE) (protein)
chain: IVGGRRARPHAWPFMVSLQLRGGHFCGATLIAPNFVMSAAHCVANVNVRAVRVVLGAHNLSRREPTRQVFAVQRIFENGYDPVNLLNDIVILQLNGSATINANVQVAQLPAQGRRLGNGVQCLAMGWGLLGRNRGIASVLQELNVTVVTSLCRRSNVCTLVRGRQAGVCFGDSGSPLVCNGLIHGIASFVRGGCASGLYPDAFAPVAQFVNWIDSIIQ
For B1, the “NE enzyme activity in vitro (cleavage of (MeOSuc)-AAPV-(pNA))” value is given as “neither nNIF nor CRISPP inhibited NE activity”.
